Laboratory results: PMC5628889, “Thermal adaptation of mesophilic and thermophilic FtsZ assembly by modulation of the critical concentration” (PLoS ONE, 2017)

Experiments:
[1] = molecular target: Methanocaldococcus jannaschii FtsZ-his6 fusion protein (Methanocaldococcus jannaschii) (UniProt Q57816); assay: 90° light scattering; MjFtsZ self-assembly started with 1 mM GTP; 50 mM MES-KOH pH 6.5, 5 mM MgCl2, 300 mM KCl; 60°C; critical concentration from extent of polymerization vs total protein; k_depol from the slope of the disassembly stage (7 μM); monomer addition at polymer ends, apparent
[2] = molecular target: Methanocaldococcus jannaschii FtsZ-his6 fusion protein (Methanocaldococcus jannaschii) (UniProt Q57816)
[3] = molecular target: Methanocaldococcus jannaschii FtsZ-his6 fusion protein (Methanocaldococcus jannaschii) (UniProt Q57816); assay: 90° light scattering; MjFtsZ self-assembly started with 1 mM GTP; 50 mM MES-KOH pH 6.5, 5 mM MgCl2, 300 mM KCl; 70°C; critical concentration from extent of polymerization vs total protein; k_depol from the slope of the disassembly stage (7 μM); monomer addition at polymer ends, apparent
[4] = molecular target: Methanocaldococcus jannaschii FtsZ-his6 fusion protein (Methanocaldococcus jannaschii) (UniProt Q57816); assay: 90° light scattering; MjFtsZ self-assembly started with 1 mM GTP; 50 mM MES-KOH pH 6.5, 5 mM MgCl2, 300 mM KCl; 80°C; critical concentration from extent of polymerization vs total protein; k_depol from the slope of the disassembly stage (7 μM); monomer addition at polymer ends, apparent
[5] = molecular target: Methanocaldococcus jannaschii FtsZ-his6 fusion protein (Methanocaldococcus jannaschii) (UniProt Q57816); assay: negative-stain transmission electron microscopy; 10 μM MjFtsZ polymerized with 1 mM GTP at 80°C; 50 mM MES-KOH pH 6.5, 5 mM MgCl2, 300 mM KCl; 2% uranyl acetate
[6] = molecular target: Methanocaldococcus jannaschii FtsZ-his6 fusion protein (Methanocaldococcus jannaschii) (UniProt Q57816); assay: van't Hoff analysis of critical concentrations (light scattering + GTPase activity); MjFtsZ; global fit of ln(1/CC) vs 1/T (40-80°C) with the integrated van't Hoff equation; parameters extrapolated to the optimal growth temperature; polymer elongation, apparent
[7] = molecular target: Methanocaldococcus jannaschii FtsZ-his6 fusion protein (Methanocaldococcus jannaschii) (UniProt Q57816); assay: 90° light scattering; MjFtsZ self-assembly started with 1 mM GTP; 50 mM MES-KOH pH 6.5, 5 mM MgCl2, 300 mM KCl; 50°C; critical concentration from extent of polymerization vs total protein; k_depol from the slope of the disassembly stage (7 μM); monomer addition at polymer ends, apparent
[8] = molecular target: Methanocaldococcus jannaschii FtsZ-his6 fusion protein (Methanocaldococcus jannaschii) (UniProt Q57816); assay: 90° light scattering; MjFtsZ self-assembly started with 1 mM GTP; 50 mM MES-KOH pH 6.5, 5 mM MgCl2, 300 mM KCl; 40°C; critical concentration from extent of polymerization vs total protein; k_depol from the slope of the disassembly stage (7 μM); monomer addition at polymer ends, apparent
[9] = molecular target: the molecule itself; assay: van't Hoff analysis of critical concentrations (light scattering + GTPase activity); EcFtsZ; global fit of ln(1/CC) vs 1/T (10-30°C) with the integrated van't Hoff equation; parameters extrapolated to the optimal growth temperature; polymer elongation, apparent
[10] = molecular target: the molecule itself; assay: negative-stain transmission electron microscopy; 10 μM EcFtsZ polymerized with 1 mM GTP at 30°C; 50 mM MES-KOH pH 6.5, 5 mM MgCl2, 50 mM KCl; 2% uranyl acetate

Methanocaldococcus jannaschii FtsZ-his6 fusion protein (from UniProt Q57816 1-364) (natural protein)
critical concentration for polymerization C (C-Pol) (= 1/Kp) [1]: 1.6 µM
critical concentration for the GTPase activity C (C-GTPase) (malachite green phosphate release, 1 mM GTP), 40°C [2]: 5.5 µM
critical concentration for the GTPase activity C (C-GTPase) (malachite green phosphate release, 1 mM GTP), 45°C [2]: 4.7 µM
critical concentration for the GTPase activity C (C-GTPase) (malachite green phosphate release, 1 mM GTP), 50°C [2]: 3.3 µM
critical concentration for the GTPase activity C (C-GTPase) (malachite green phosphate release, 1 mM GTP), 55°C [2]: 3.3 µM
critical concentration for the GTPase activity C (C-GTPase) (malachite green phosphate release, 1 mM GTP), 65°C [2]: 2.2 µM
critical concentration for the GTPase activity C (C-GTPase) (malachite green phosphate release, 1 mM GTP), 70°C [2]: 1 µM
critical concentration for the GTPase activity C (C-GTPase) (malachite green phosphate release, 1 mM GTP), 80°C [2]: 1.1 µM
critical concentration for polymerization C (C-Pol) (= 1/Kp) [3]: 1.6 µM
critical concentration for polymerization C (C-Pol) (= 1/Kp) [4]: 1.1 µM
stoichiometry N [5]: > 120 subunits
dH [6]: 5.57 kJmol^−1
critical concentration for polymerization C (C-Pol) (= 1/Kp) [7]: 1.8 µM
critical concentration for polymerization C (C-Pol) (= 1/Kp) [8]: 3.9 µM

B1: Wild type Escherichia coli FtsZ (natural protein, UniProt P0A9A6 1-383, looked up)
chain: MFEPMELTNDAVIKVIGVGGGGGNAVEHMVRERIEGVEFFAVNTDAQALRKTAVGQTIQIGSGITKGLGAGANPEVGRNAADEDRDALRAALEGADMVFIAAGMGGGTGTGAAPVVAEVAKDLGILTVAVVTKPFNFEGKKRMAFAEQGITELSKHVDSLITIPNDKLLKVLGRGISLLDAFGAANDVLKGAVQGIAELITRPGLMNVDFADVRTVMSEMGYAMMGSGVASGEDRAEEAAEMAISSPLLEDIDLSGARGVLVNITAGFDLRLDEFETVGNTIRAFASDNATVVIGTSLDPDMNDELRVTVVATGIGMDKRPEITLVTNKQVQQPVMDRYQQHGMAPLTQEQKPVAKVVNDNAPQTAKEPDYLDIPAFLRKQAD
notes: Cell division protein FtsZ, Escherichia coli, wild type; assembly was started with 1 mM GTP; also called EcFtsZ; mesophilic EcFtsZ; source: E. coli BL21 (DE3), overexpressed, purified (polymerization-depolymerization cycles)
dH [9]: -18.4 kJmol^−1
stoichiometry N [10]: > 120 subunits
